Test results reported in publication PMC7215426.
pKd: −log10 of the molar value.

What was measured:
[1] = target: T1, C-reactive protein (CRP) (human) (UniProt P02741); test: SPR; conditions: Ugu; SPR (ProteON XPR36) at 25 C in SB: 40 mM HEPES pH 7.5, 125 mM NaCl, 5 mM KCl, 1 mM MgCl2, 0.01% Tween 20; aptamer immobilized via 3' A20/T20 hybridized to …
T1 sequence: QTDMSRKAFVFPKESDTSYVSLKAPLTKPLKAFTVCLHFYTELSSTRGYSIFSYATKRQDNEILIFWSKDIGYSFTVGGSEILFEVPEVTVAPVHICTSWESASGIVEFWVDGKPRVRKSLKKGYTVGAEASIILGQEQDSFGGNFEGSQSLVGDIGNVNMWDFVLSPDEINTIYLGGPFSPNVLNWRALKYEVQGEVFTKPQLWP

[2] = target: Lactate dehydrogenase-5 (LDH-5) (human) (UniProt P00338); test: SPR; conditions: Aad; SPR (ProteON XPR36) at 25 C in SB: 40 mM HEPES pH 7.5, 125 mM NaCl, 5 mM KCl, 1 mM MgCl2, 0.01% Tween 20; aptamer immobilized via 3' A20/T20 hybridized to …

| Sequence | pKd [1] | pKd [2] |
| --- | --- | --- |
| CGCACATCAGTTTAGCTAGTTCTGCCTTAATATGGTCGGTTAAGCGCA [CRP-Ugu4-3] | 11.21 | – |
| TGCTGCTGGCTCGTGAGACGGATATCAGGTCTCCTAAGGCTGGC [LDH-Aad1-3] | – | 9.63 |
